Assay results: the domain aggregation screens of Martell et al. (2025)

Test: soluble fraction after stress (log2 fold change); higher = more stays soluble; pooled small domains, quantitative proteomics
Settings: stress: 50 degC
Procedure, shortened: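 The measure of aggregation propensity here is the base-two logarithm of the fold change in the soluble amount of each protein after stress. A higher value means more of that protein stays in solution. Stress was applied at 50°C to pooled libraries of small protein domains, read out by high-throughput quantitative proteomics.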

Sequence	soluble fraction (log2)
HMQKTVLAASVYERMKERIMDQYYPPGERLNIDALAIDLAVSPTPIREALARLAAERLITFEAYKGYRVSP	-1.87
HMQAATGVVTASVLNIRQGPGTNYTKVGSLLKGAQVEIVGQNGAWSKIRLKSGITGWVNSSYLKTST	-0.0664
HMVEYFDDENLDAFIGRESDSYTEKEIEQFREILYTMNQKEVADWNRSLTIRGINIPNDLKDEMIMMI	-0.438
HMKSISMSKLRHLLQLYVQGRSKKLISEQTGIARNTLKKYIKEFSEAGLSLEALLALSDKELEDLFVK	-1.01
HMKLINEDLNNEIVFEENKVNLLVIENKKKFVQFIQEIIKQINGDEGKFSLFDINTELKIHDKIDII	0.185
HMNAQLTTQEAADLLNVSRPHLVKLLEDGELPFLRTGKHRRVRLADLLQFKNAREQASVQAMDELSRQAQ	0.154
HMPGTEAQDGEVLLDALRRIHPDSSTGTLRRMLTQGRVQVDGTTVHAAKAELTSGQHVEVVAR	0.0101
HMHNISQTGRRIAGMTQERWAEALDISVESVRLYESGRGMPSDDVATRMVEVSGAPVLGYWH	-0.407
HMYLGRKATLLSSISGEKMGNAEVLADGNLMSIYVKSLTGEPLSYGSTVLIIKHSEDQNFYLVQN	-2.58
HMAAPLTDRETEVLTLLARGLINKQIAEELHIGLTTVITHRRNIMEKLRVRSLAELILRAVAAGYVDAGR	-1.77
HMEPDDLTVIKGIGPVAAKDLNEQGIITFAQLAKLSDKDVAKIDEHMPFSADQIKDWREQAKELAK	0.263
HMSGYFSDKKLNELFEQYLIMREKKGKPVVGYQLKILIDRLNQVAANTKEKIEVVSNAIAGDWNTFYPIKR	-0.621
HMAIKTGAVTGHGVKVRKGPSTNEKAIHDVLYGSRLQILEEKNGFLKAKFEDGTTGWISKQFVTTTDKNLL	0.223
HMRTLRENIMDYFKQQTIIQKSSVILLPMSKRQLADYFGVQRPSLFRELKKLKEEGIIEINNRTITIK	-1.27
HMGNKWKPIILYLLSNGSMRFGMLNALIPTISKKVLTNQLKELENDGLLLRQSFAEIPPRVEYSLTEKA	-1.58
HMSSDEAEYKLLLGQEGVAKSPLRPSGVVDFSGRRLDVQTLGDFIESGETVVVKQVNGHRVLVERK	0.158
HMRWSDQKEIVTLSLDHVLVEKGRKTKEYSWREFRTFTAFEIKKSSKDQINLGFKSKGNTVIIGNF	-0.919
HMRISKRQLILESAAAIINEKGADYLTLDAVAQRAGISKGGLFYHFKSKDELIKELVNYANN	-0.14
HMSNTPHSREVLLEMDAVRRLLAVGEEKGEVDRADLQGAFEEAELGRGDLDGVLSILREYDVPLAR	0.0709
HMFIPGDSVRVHVKVVEGSNERIQMFEGVVIARQGSGVRENFTVRRISYGVGIERTFPVHSPRL	0.103
HMEAKTSNPDYHARLGLTEGEGNDSALGVSVKAAEGGFGLLFGNKVGSDQLVRFANEDQVWLVNRALS	0.0188
HMAEKEYYYATDALNLRQGPGMEHTVKGEVVLGERVALLGLEGKWAKIQNAQGTTGYVFSAYLAPS	0.0931
HMYVSGVPAITSIERVSTPGRRVYAGYTTVPKVIGGMGVSILTTSRGVMTDAEARRQKVGGELLAKV	-0.0341

Sequence	soluble fraction (log2)
HMEDNYYENKINYLFGYLDEADKEISVNSILDFHLAHRTNPEFVFEPKKNTNPLIWKYLSNSNLLY	-0.0177
HMPPAIKTLMFMIQNKSLLKSPKQLAVVQQQLKKIKGVRDVLILLEEGKVMLKVNKHETIHEASIIRLLGG	-0.521
HMNSYKGELLVDDKNIRLDLYLFNQFNFFSRTKIKNYILKGNVLVNNNKTSPSYILKGSEKIYYDFSVS	-1.2
HMTVNLPPKQKAAILLMSLPPEVSAQLFKELGPDEVHAITLEISKLPPISPDVRAQVIDEFLHSS	-0.152
HMALPGESVYVSILQSGSNRDQGVGYLDDGTMVVVDGAIKDIGKSIEVVINKSHQTVAGKMLFAKKVA	-0.0558
HMQDFEQNLFDGKSIYDRMLSKFSLHNVDVKQLVAHFKRKDTEQFFADIGRGLITSAQMLGFLQT	-0.289
HMEAEQLEAIRSALQQLSDMNRTVFNLHVVDGYKHEEIAAMLNITTGTSKAHLHRAKKRLRELID	-0.975
HMRVSNADALIGRRGKANSDIRRGDYGWVAIDGDVWKSKLADDITEDIPMGAIVEVLSRDSIILTVKP	-0.324
HMATAPQIRAIYALGSKLGINQNSREDNLHQLVYSITGKESIKGLTNYEAARVQSELANMERK	0.22
HMMNNKEIGTRIAVLRKGMGDSQAKLAERLDVSPQAVSKWETGQSLPDIGNLLKLSWLFRTSINHILEGS	-1.37
HMRLPLYLALAQTLRQEIDAKQYKIGAHLPPEDQLVVKYGVSRHTVRQALQELKNEGLITSKAGIGTIVSS	-0.666
HMQNNITISKEIELRTGPDDTYPTLKKVTAGDNVEMLSKSDTWYEIKTNDSFVGWVPGWSIL	0.0818
HMQPQLFRVIADDGLNIRSGPGPEYPPVAPMLRKGTQVELLQAGDRWSKVEVVGSTDVEGWVNQRYLQAV	0.0476
HMFGIEIPEEAGKLQDYTLTDDDLEGGNTLKEIQFPQGARVVIIRRDDKFIIPDGSVELQSGDQLLIIYGE	-0.578
HMEPLKLGDATGDGKINLQDVLEMQKHMAGILVLKGKFFTAADVNGNGKIELVDVLSVQKYLAGVTAEV	0.00939
HMDKGMQTMIDNLHKNTGKTLEEWIALVNRANFAKHGEVISFLKEKHGLTHGYANLVAHRLK	0.113
HMENHILIIDDDLMLLKTAEEILSDQYNVSVAKSGIQALNLLNKNIIPDLILLDIDMPQMDGYETL	-0.0279
HMKLIIVPNLVGQSRRSVEISLQQIGLRIDTVYTEFNPDYPKGTVAWQFPKSGDHIKKGMGLQITVSQG	-0.522
HMNILVAISDTGEIWINKRRVDARAVQANIERLHAENPQGTVVIQADKQATTETLIKVMDASRAAGVFDVS	-0.618
HMKFYIHEIIGFNAVDKVAGIVGKVININEDSPQKKLVVNYNGKEVFIPLVDEIVRKIDKQKNEVLITMP	0.155
HMNVAETITLGKRLFNHALTILGKKQRNISRKQLKNFLNDLGLKDSKDLYESIGTGDKNPILMAQLLLG	-0.509
HMAAEGARNNSLFNSLRERALEVSSHNELEQIAFKMNETNIPPLRASEVISVVNSVWKNRISNQIIP	0.155
HMGFSKGKRDLIRMIKLAIRELADDNGRAQIEDVITRLVQEGHSRDEIRLQIDMFLRQGEAMEPKQGIIKL	0.325

Sequence	soluble fraction (log2)
HMGVRLAPEVDRIPYGQMHPNLKKVKDLYEASYKAYVQALSSGNQALAKEKLEEFQSTKARYQRALSAYT	0.189
HMGLKDTEVYMPDVRGLIEEEAQTKLKASFLTMKVSYTSSDEVKKGYVISQAPSADSVVLKGASVTVIVS	-2.07
HMSVTYRLLITSSPGQAEVFLDGKRVGITPFSARLAAGWYQVRVSKEGYNLWEQHVQLREDQRLTATLT	-0.471
HMFTLDDLQATYDIFERAEQNSDAMLAFQKVITAEGLDFDLTSPQGIVDFFKGAAPTEIYDLYEAS	-0.403
HMLNLNILTDKEKFIAKLISRGLSDSLIAKELYISISTVRSHVNSIYGKTNIKNRSHLASSFLYFELGNLL	-0.135
HMRLHSSGEDYLKAIFILEAQHSSVRSVEVAEYMNVSKASVSHAVALLKKNGFLKMNQDYDLTER	0.0124
HMANTVVMPNLLGKTMTEAKIELKELGIDITLKGSESSSKYSAGQIMEQNIAEGTKVEVGSSVEVTIAGS	-0.306
HMTDDFAGRFNELLIHNQETAVTAATRLEVSPAVITKWRQGKSIPSGEYIKRIVETYHVSADYLLGVIDTP	-0.445
HMGLGQRIKARREALGLSQARLGEAVGVSLQAVSNWERDEYLPDTARLPLIARALGLTPGQLME	0.0172
HMGQGSAFVYYEVLPKQTEYSLTRKLGLGYADLLSLNPQLARGLQAGMVLKIPRDKAGNLEVKNDLILE	-0.271
HMELPADLATVLSVDDIRAIALAEVPGSTITGVELEREEGVLVYKVKFNDGSYKLYDANTGELV	0.174
HMNSKKRQAILESLRSVTDHPTAEMIYNRLKPEYPDLSLGTVYRNLAMFLEEGQVISVGTVDGQERYDAR	-0.306
HMDGLPYPEAAEEPIAQVARNLGMDATRVSIALQEAKLIFRNLDETLAEIAANNGTTPQVVYDAIRHLEPP	-0.095
HMALTLDEARTQGRVGETFYGYLVALKTDAETEKLVNDINAERKASYQQLAKQNNVSVDDIAKLAGQKLV	0.0405
HMASVRPVAPPDPKTHTRLTYRIRRGDTLERIGRRYRVSIAEIQAWNTLRDPGDILAGQRLVIWIPTS	-2.3
HMNNISKKIKELREQNNITQNKLANDLFIKQQTVAQWENGSRALKADSIISLAKYFNVSTDYLLGLTEN	-0.339
HMDTVSYSTLLRDIDAKEIKQLDLVPGRREVRVQYNDGRRVTVPVFANDNQILRAAESSGTPLTVV	0.183
HMSELLIVGSEQDNTRLDRFLADQYEEYTRSFLQKLIDQGNVSINGISVKKSGIKLKENDEIAVTLPEPQ	0.389
HMPNNNDIVLDRVSFGYHEKEVLHGIDMTIREGTVNALVGPSGSGKSTIAKLIAGLWDVDGGSISF	0.154
HMIGKDLLGYEVFSESGDLVGILKDVMWLPHSDVYVITNGGKELLIPVIPEVVKGINHEQGVIVISPM	0.0196
HMKKIFIDAPLDTMITIPKDTTHHLLTVFRHKMEKPVLVGGSDGRTGVYQIQDVVDGEASAKLVGDIQ	0.514
HMSILYNAVKGTLVSSGALTADSWYKISSFGTASALPALKVGSIFKTPEGAGDAITLASGDSVYPLTLT	-1.26
